Series [1] deals with HeLa Kyoto. Kind of series: solubility in G1/S (NP-40 vs SDS abundance) (log2 ratio); higher = more soluble. The note with it: cell cycle stage: G1/S.
In series [2] the test system is HeLa Kyoto. As to the kind of experiment: melting temperature (median over replicates), in situ; higher = more thermally stable.
Series [3] has as its system HeLa Kyoto. Kind of series: solubility change mitosis vs G1/S (difference of NP-40 vs SDS log2 ratios) (log2 ratio difference); higher = more soluble in mitosis.
Series [4] relates to HeLa Kyoto. As to the kind of experiment: thermal stability score vs G1/S (z-score of summed log2 fold changes over temperatures); higher = more thermally stable than in G1/S.
The mark [5] stands for this setting: cell cycle stage: early G1 (4.5 h after nocodazole release).
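For melting temperature (median over replicates), in situ in this document: HeLa Kyoto cells synchronized by double thymidine or nocodazole block, proteins quantified by TMT10plex mass spectrometry, three independent biological replicates.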
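For solubility change mitosis vs G1/S (difference of NP-40 vs SDS log2 ratios) in this document: synchronized HeLa Kyoto cells (double thymidine block for G1/S, nocodazole release for mitosis), protein amounts in NP-40 versus SDS lysates quantified by mass spectrometry, three biological replicates.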
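For solubility in G1/S (NP-40 vs SDS abundance) in this document: HeLa Kyoto cells arrested at G1/S by double thymidine block, proteins quantified by TMT10plex mass spectrometry in mild NP-40 versus SDS extracts, three biological replicates.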
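For thermal stability score vs G1/S (z-score of summed log2 fold changes over temperatures) in this document: synchronized HeLa Kyoto cells, proteins quantified by TMT10plex mass spectrometry, three biological replicates, mitosis taken 0.5 h after nocodazole release, G1/S directly after double thymidine block.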

With “MAAKGAHGSYLKVESELERCRAEGHWDRMPELVRQLQTLSMPGGGGNRRGSPSAAFTFPDTDDFGKLLLAEALLEQCLKENHAKIKDSMPLLEKNEPKMSEAKNYLSSILNHGRLSPQYMCEAMLILGKLHYVEGSYRDAISMYARAGIDDMSMENKPLYQMRLLSEAFVIKGLSLERLPNSIASRFRLTEREEEVITCFERASWIAQVFLQELEKTTNNSTSRHLKGCHPLDYELTYFLEAALQSAYVKNLKKGNIVKGMRELREVLRTVETKATQNFKVMAAKHLAGVLLHSLSEECYWSPLSHPLPEFMGKEESSFATQALRKPHLYEGDNLYCPKDNIEEALLLLLISESMATRDVVLSRVPEQEEDRTVSLQNAAAIYDLLSITLGRRGQYVMLSECLERAMKFAFGEFHLWYQVALSMVACGKSAYAVSLLRECVKLRPSDPTVPLMAAKVCIGSLRWLEEAEHFAMMVISLGEEAGEFLPKGYLALGLTYSLQATDATLKSKQDELHRKALQTLERAQQLAPSDPQVILYVSLQLALVRQISSAMEQLQEALKVRKDDAHALHLLALLFSAQKHHQHALDVVNMAITEHPENFNLMFTKVKLEQVLKGPEEALVTCRQVLRLWQTLYSFSQLGGLEKDGSFGEGLTMKKQSGMHLTLPDAHDADSGSRRASSIAASRLEEAMSELTMPSSVLKQGPMQLWTTLEQIWLQAAELFMEQQHLKEAGFCIQEAAGLFPTSHSVLYMRGRLAEVKGNLEEAKQLYKEALTVNPDGVRIMHSLGLMLSRLGHKSLAQKVLRDAVERQSTCHEAWQGLGEVLQAQGQNEAAVDCFLTALELEASSPVLPFSIIPREL [TTC7A]”, the “solubility in G1/S (log2)” value in the series on HeLa Kyoto [1] came out at 0.161. This sequence also came in with a melting temperature with HeLa Kyoto [2] (cell cycle stage: G1/S) of 51.2 °C. Further, the “solubility change mitosis (log2)” value in the series with HeLa Kyoto [3] was -0.168. Besides, the thermal stability score in the series with HeLa Kyoto [4] (setting [5]) was 0.0827; with HeLa Kyoto [4] (cell cycle stage: mitosis), -0.515.

Consider “MAAKVFESIGKFGLALAVAGGVVNSALYNVDAGHRAVIFDRFRGVQDIVVGEGTHFLIPWVQKPIIFDCRSRPRNVPVITGSKDLQNVNITLRILFRPVASQLPRIFTSIGEDYDERVLPSITTEILKSVVARFDAGELITQRELVSRQVSDDLTERAATFGLILDDVSLTHLTFGKEFTEAVEAKQVAQQEAERARFVVEKAEQQKKAAIISAEGDSKAAELIANSLATAGDGLIELRKLEAAEDIAYQLSRSRNITYLPAGQSVLLQLPQ [PHB]”, for which the “solubility in G1/S (log2)” value in the series on HeLa Kyoto [1] is -0.137. The melting temperature was 59.5 °C in the series with HeLa Kyoto [2] (cell cycle stage: G1/S) and 58.1 °C with HeLa Kyoto [2] (cell cycle stage: mitosis). Also, the “solubility change mitosis (log2)” value with HeLa Kyoto [3] is -0.0774. Moreover, the values for the thermal stability score in the series on HeLa Kyoto [4] (setting [5]) and in the series on HeLa Kyoto [4] (cell cycle stage: mitosis) were -1.45 and -2.71, respectively.

For the sequence “MAALGPSSQNVTEYVVRVPKNTTKKYNIMAFNAADKVNFATWNQARLERDLSNKKIYQEEEMPESGAGSEFNRKLREEARRKKYGIVLKEFRPEDQPWLLRVNGKSGRKFKGIKKGGVTENTSYYIFTQCPDGAFEAFPVHNWYNFTPLARHRTLTAEEAEEEWERRNKVLNHFSIMQQRRLKDQDQDEDEEEKEKRGRRKASELRIHDLEDDLEMSSDASDASGEEGGRVPKAKKKAPLAKGGRKKKKKKGSDDEAFEDSDDGDFEGQEVDYMSDGSSSSQEEPESKAKAPQQEEGPKGVDEQSDSSEESEEEKPPEEDKEEEEEKKAPTPQEKKRRKDSSEESDSSEESDIDSEASSALFMAKKKTPPKRERKPSGGSSRGNSRPGTPSAEGGSTSSTLRAAASKLEQGKRVSEMPAAKRLRLDTGPQSLSGKSTPQPPSGKTTPNSGDVQVTEDAVRRYLTRKPMTTKDLLKKFQTKKTGLSSEQTVNVLAQILKRLNPERKMINDKMHFSLKE [GTF2F1]”, in the series on HeLa Kyoto [1], the “solubility in G1/S (log2)” value came out at 0.237. Moreover, the melting temperature in the series with HeLa Kyoto [2] (cell cycle stage: G1/S) was determined as 52.7 °C; with HeLa Kyoto [2] (cell cycle stage: mitosis), 53.3 °C. Moreover, in the series on HeLa Kyoto [3], the “solubility change mitosis (log2)” value was 0.126. Besides, the values for the thermal stability score with HeLa Kyoto [4] (setting [5]) and in the series on HeLa Kyoto [4] (cell cycle stage: mitosis) were -0.52 and -1.74, respectively.

Turning to “MAALTLRGVRELLKRVDLATVPRRHRYKKKWAATEPKFPAVRLALQNFDMTYSVQFGDLWPSIRVSLLSEQKYGALVNNFAAWDHVSAKLEQLSAKDFVNEAISHWELQSEGGQSAAPSPASWACSPNLRCFTFDRGDISRFPPARPGSLGVMEYYLMDAASLLPVLALGLQPGDIVLDLCAAPGGKTLALLQTGCCRNLAANDLSPSRIARLQKILHSYVPEEIRDGNQVRVTSWDGRKWGELEGDTYDRVLVDVPCTTDRHSLHEEENNIFKRSRKKERQILPVLQVQLLAAGLLATKPGGHVVYSTCSLSHLQNEYVVQGAIELLANQYSIQVQVEDLTHFRRVFMDTFCFFSSCQVGELVIPNLMANFGPMYFCKMRRLT [NSUN4]”, the “solubility in G1/S (log2)” value in the series with HeLa Kyoto [1] was -0.195. Also, the melting temperature came to 51.7 °C in the series on HeLa Kyoto [2] (cell cycle stage: G1/S) and 51.9 °C with HeLa Kyoto [2] (cell cycle stage: mitosis). In addition, in the series on HeLa Kyoto [3], the “solubility change mitosis (log2)” value came to 0.115. Moreover, the figures for the thermal stability score with HeLa Kyoto [4] (setting [5]) and in the series on HeLa Kyoto [4] (cell cycle stage: mitosis) were 0.266 and 0.044, respectively.

For the sequence “MAALVVSGAAEQGGRDGPGRGRAPRGRVANQIPPEILKNPQLQAAIRVLPSNYNFEIPKTIWRIQQAQAKKVALQMPEGLLLFACTIVDILERFTEAEVMVMGDVTYGACCVDDFTARALGADFLVHYGHSCLIPMDTSAQDFRVLYVFVDIRIDTTHLLDSLRLTFPPATALALVSTIQFVSTLQAAAQELKAEYRVSVPQCKPLSPGEILGCTSPRLSKEVEAVVYLGDGRFHLESVMIANPNVPAYRYDPYSKVLSREHYDHQRMQAARQEAIATARSAKSWGLILGTLGRQGSPKILEHLESRLRALGLSFVRLLLSEIFPSKLSLLPEVDVWVQVACPRLSIDWGTAFPKPLLTPYEAAVALRDISWQQPYPMDFYAGSSLGPWTVNHGQDRRPHAPGRPARGKVQEGSARPPSAVACEDCSCRDEKVAPLAP [DPH1]”, the “solubility in G1/S (log2)” value with HeLa Kyoto [1] was 0.145. The melting temperature in the series on HeLa Kyoto [2] (cell cycle stage: G1/S) and with HeLa Kyoto [2] (cell cycle stage: mitosis) was 53 °C in each case. In addition, the “solubility change mitosis (log2)” value in the series with HeLa Kyoto [3] was -0.202. The thermal stability score was -0.776 in the series with HeLa Kyoto [4] (setting [5]) and -1.19 with HeLa Kyoto [4] (cell cycle stage: mitosis).
